According to paper PMC3088709, “Phosphorylation of the Yeast γ-Tubulin Tub4 Regulates Microtubule Function” (PLoS ONE, 2011):

B1: Tub4 (yeast gamma-tubulin), wild type, untagged [S. cerevisiae] / Spc97-3HA [S. cerevisiae] (parent complex)
chain 1: MGGEIITLQAGQCGNHVGKFLWSQLAKEHAIGTDGLSQLPDSSTERDDDTKPFFRENSRNKFTPRAIMMDSEPSVIADVENTFRGFFDPRNTWVASDGASAGNSWANGYDIGTRNQDDILNKIDKEIDSTDNFEGFQLLHSVAGGTGSGLGSNLLEALCDRYPKKILTTYSVFPARSSEVVVQSYNTILALRRLIEDSDATVVFDNASLLNISGKVFRNPNIDLQHTNQLISTIISSVTNSIRFPSYMYSSMSSIYSTLIPSPELHFLSPSFTPFTSDYIHDDIAHKGHSSYDVMLDLLDPSNSLVSTAMNNPTYFNVYNTIIGNVEPRQISRAMTKLQQRIKFPSWSSSAMHVNIGRRSPYLPLQPNENEVSGMMLSNMSTVVNVFENACNTFDKVFAKGAFLNNYNVGDLFQSMQNVQDEFAESREVVQSLMEDYVAAEQDSYLDDVLVDDENMVGELEEDLDADGDHKLV
chain 2: MEIKEVDDRAELLRYTNNIPLLGKLVNHQPLWSTNPKLKSFSLEKISAPDQRRVQEALVVKDLLNVLIGLEGTYIRYFNDYEPSDPETPIEFKIAKKMDPSFKTFSRRIVRYGKQYMILTRAYEKWSDTSFGMVLQRFAYEIRRFLEDVYLKTLVERLERDFNKVPNFSIRELEQIINETEVNKQMELLYNIYEEIFREIEERRTNQSSQEDFNNFMDSMKNESSLHLRLMVAFDTTVYPVPKGGAILKIFQQKILENLGDRSSVMFLKKLLNNISQDYCTMLYEWLTQGILNDPYQEFMTYDDLEGKTDNIFDTRDRAWDTQYFIRKDVLLRDCDSEEDKNLLFKMLRTGILLKVVRASLQIPTIPSNSSDITIQEINDFADLMEGSNLELYVDKCYSRANEIFLKLFFQGYDLINVLKHLQQIFLGYQSGHNVLKFLTKNMGELTKHYRNDNNANYDKLLQNFELERQSENPNNLMRQLLMIQFDTETLPQVLSHYLQIYPEVPENNSANDDSDPLMHANNFKNMNAILFDELSKERTGAYHGSNLELYTPKSAIYHLKFDINIPYPLNIIISRTCMIKYQIILRYQLVLQYHSRLLDETWMDLNKTPSWKYRGYSHTVKRRIVRATRVLHAKMNHFIKTIMEYFNQNVIDKEVYSLEKCYRNPTLAVAIQNELEGGLTNIMTNRCLSDLIPLQLQIFDIVYKFCKFIKSMRAKLCQLDPVLYEKHKSGMMKTLNEGYRTNNGGQEDVGYQEDAALELIQKLIEYISNASSIFRKCLINFTQELSTEKFDFYDSSSVDAAGIERVLYSIVPPRSASASSQR

Variants of: B1
Assay: co-immunoprecipitation (anti-HA IP of Spc97-3HA), quantified immunoblot; TUB4-AID SPC97-3HA cells, IAA for 2 h at 30°C; normalized to precipitated Spc97-3HA; parent: 1; read off a plot

ratio to parent | Variant
~0.63 | chain 1 MGGEIITLQAGQCGNHVGKFLWSQLAKEHAIGTDGLSQLPDSSTERDDDTKPFFRENSRNKFTPRAIMMDSEPSVIADVENTFRGFFDPRNTWVASDGAEAGNSWANGYDIGTRNQDDILNKIDKEIDSTDNFEGFQLLHSVAGGTGSGLGSNLLEALCDRYPKKILTTYSVFPARSSEVVVQSYNTILALRRLIEDSDATVVFDNASLLNISGKVFRNPNIDLQHTNQLISTIISSVTNSIRFPSYMYSSMSSIYSTLIPSPELHFLSPSFTPFTSDYIHDDIAHKGHSSYDVMLDLLDPSNSLVSTAMNNPTYFNVYNTIIGNVEPRQISRAMTKLQQRIKFPSWSSSAMHVNIGRRSPYLPLQPNENEVSGMMLSNMSTVVNVFENACNTFDKVFAKGAFLNNYNVGDLFQSMQNVQDEFAESREVVQSLMEDYVAAEQDSYLDDVLVDDENMVGELEEDLDADGDHKLV [chain 1 S100E]
~0.41 | chain 1 MGGEIITLQAGQCGNHVGKFLWSQLAKEHAIGTDGLSQLPDSSTERDDDTKPFFRENSRNKFTPRAIMMDSEPSVIADVENTFRGFFDPRNTWVASDGASAGNSWANGYDIGTRNQDDILNKIDKEIDSTDNFEGFQLLHSVAGGTGSGLGSNLLEALCDRYPKKILTTYSVFPARSSEVVVQSYNTILALRRLIEDSDATVVFDNASLLNISGKVFRNPNIDLQHTNQLISTIISSVTNSIRFPSYMYSSMSSIYSTLIPSPELHFLSPSFTPFTSDYIHDDIAHKGHSSYDVMLDLLDPSNSLVSTAMNNPTYFNVYNTIIGNVEPRQISRAMTKLQQRIKFPSWSSSAMHVNIGRRDPYLPLQPNENEVSGMMLSNMSTVVNVFENACNTFDKVFAKGAFLNNYNVGDLFQSMQNVQDEFAESREVVQSLMEDYVAAEQDSYLDDVLVDDENMVGELEEDLDADGDHKLV [chain 1 S360D]
